This is an account of results in IntAct's records for PubMed 22164301.

Sequences and labels used below:
B1: Protein unc-93 homolog B1 (Homo sapiens), Q9H1C4 (parent)
chain: MEAEPPLYPMAGAAGPQGDEDLLGVPDGPEAPLDELVGAYPNYNEEEEERRYYRRKRLGVLKNVLAASAGGMLTYGVYLGLLQMQLILHYDETYREVKYGNMGLPDIDSKMLMGINVTPIAALLYTPVLIRFFGTKWMMFLAVGIYALFVSTNYWERYYTLVPSAVALGMAIVPLWASMGNYITRMAQKYHEYSHYKEQDGQGMKQRPPRGSHAPYLLVFQAIFYSFFHLSFACAQLPMIYFLNHYLYDLNHTLYNVQSCGTNSHGILSGFNKTVLRTLPRSGNLIVVESVLMAVAFLAMLLVLGLCGAAYRPTEEIDLRSVGWGNIFQLPFKHVRDYRLRHLVPFFIYSGFEVLFACTGIALGYGVCSVGLERLAYLLVAYSLGASAASLLGLLGLWLPRPVPLVAGAGVHLLLTFILFFWAPVPRVLQHSWILYVAAALWGVGSALNKTGLSTLLGILYEDKERQDFIFTIYHWWQAVAIFTVYLGSSLHMKAKLAVLLVTLVAAAVSYLRMEQKLRRGVAPRQPRIPRPQHKVRGYRYLEEDNSDESDAEGEHGDGAEEEAPPAGPRPGPEPAGLGRRPCPYEQAQGGDGPEEQ
partner: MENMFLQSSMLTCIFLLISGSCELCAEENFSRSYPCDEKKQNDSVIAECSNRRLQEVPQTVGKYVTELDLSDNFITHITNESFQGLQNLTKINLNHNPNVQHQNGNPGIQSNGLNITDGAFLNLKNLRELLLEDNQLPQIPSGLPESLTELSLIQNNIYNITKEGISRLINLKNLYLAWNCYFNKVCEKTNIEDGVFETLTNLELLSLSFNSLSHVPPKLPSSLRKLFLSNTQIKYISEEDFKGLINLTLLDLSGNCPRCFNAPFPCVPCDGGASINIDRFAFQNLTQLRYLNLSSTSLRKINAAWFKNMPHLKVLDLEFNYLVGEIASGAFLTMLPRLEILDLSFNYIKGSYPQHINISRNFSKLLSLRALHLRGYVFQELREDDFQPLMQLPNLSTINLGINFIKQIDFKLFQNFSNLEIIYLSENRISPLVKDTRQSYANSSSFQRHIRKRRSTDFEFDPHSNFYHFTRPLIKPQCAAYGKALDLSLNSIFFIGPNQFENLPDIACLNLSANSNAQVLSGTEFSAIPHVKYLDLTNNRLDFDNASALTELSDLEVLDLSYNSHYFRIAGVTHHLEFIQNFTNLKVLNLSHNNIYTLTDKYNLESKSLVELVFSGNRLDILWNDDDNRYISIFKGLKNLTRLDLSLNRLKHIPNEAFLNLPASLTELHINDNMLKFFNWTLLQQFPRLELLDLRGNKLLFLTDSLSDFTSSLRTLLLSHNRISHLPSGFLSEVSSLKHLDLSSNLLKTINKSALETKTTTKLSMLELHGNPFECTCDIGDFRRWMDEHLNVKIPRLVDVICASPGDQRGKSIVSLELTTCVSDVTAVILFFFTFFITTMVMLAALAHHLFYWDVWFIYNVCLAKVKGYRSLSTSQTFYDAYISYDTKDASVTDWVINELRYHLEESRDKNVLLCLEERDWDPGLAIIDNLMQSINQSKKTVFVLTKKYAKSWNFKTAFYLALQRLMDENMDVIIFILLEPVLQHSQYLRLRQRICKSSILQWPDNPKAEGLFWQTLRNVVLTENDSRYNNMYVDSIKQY
B2: Protein unc-93 homolog B1 (Homo sapiens), Q9H1C4 (parent)
chain: B1 chain

The first assay covers variants of B1. Particulars: with tlr8_human TLR8, Q9NR97.
For H412R, the “effect of a mutation on the interaction” value is “disrupting interaction strength”.

In a further assay the parent is B2. The note with it: with tlr3_human TLR3, O15455.
In the case of H412R, the “effect of a mutation on the interaction” value was “disrupting interaction strength”.
